Experimental data published in the supplement of paper PMC10065799, “High-throughput profiling of sequence recognition by tyrosine kinases and SH2 domains using bacterial peptide display” (eLife, 2023).
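Wherever SH2 binding enrichment of the phosphorylated peptide, bacterial display is given: peptide library displayed on the E. coli surface as eCPX fusions, selected cells deep-sequenced, score is each peptide's frequency after selection divided by its frequency in the input.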
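Wherever phosphorylation enrichment, bacterial display is given: 11-residue human phosphosite peptides and single-mutation variants displayed on the E. coli surface, counted by deep sequencing, each peptide's frequency after selection divided by its frequency in the unselected input library; frequency after pTyr selection over input frequency; kinase dosed for 20-30% of maximal phosphorylation in three min.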

The sequences below were run against c-Src SH2 (assay: SH2 binding enrichment of the phosphorylated peptide, bacterial display (enrichment ratio); higher = better substrate or ligand; peptides without Tyr show the background).
Sequence RHPEVYHHLGI [NVL_Y290_V295I] has an SH2 binding enrichment of 0.932. For IQKKFYRAILE [CHD7_Y1218_YF], the SH2 binding enrichment was 0.685. KNRDVYSSDFF [USP24_Y2134_YF] was tested, and the SH2 binding enrichment was 0.588. Sequence KQRKEYMHRRQ [IQGAP2_Y710] has an SH2 binding enrichment of 0.447. With NTYENYWPFYQ [GATM_Y103_K102N] the SH2 binding enrichment was 2.78. With ISRLKYPVSQQ [BTK_Y375] the SH2 binding enrichment was 0.831. PGNIVYSSLCG [BCOR_Y90] was tested, and the SH2 binding enrichment was 0.579. Work on PNRILYRDFRQ [MYH7_Y715_G716R] yielded an SH2 binding enrichment of 0.557. With PQIVNYSPDCI [LDHB_Y128_K127N] the SH2 binding enrichment was 0.506. In the case of GNLLIYTEFGN [HGD_Y166_K171N], the SH2 binding enrichment is reported as 0.462. In the case of LIGRRCDDPEV [HSPA9_Y128_Y128C], the SH2 binding enrichment is reported as 0.431. DRSSLYLVAGP [KIAA1614_Y1083_N1078D] showed an SH2 binding enrichment of 0.519. NTILLYHIMAW [GPR143_Y157_S152N] gave an SH2 binding enrichment of 0.577. Work on PHQTIYGALMI [FGF23_Y70_S71G] yielded an SH2 binding enrichment of 0.341. Sequence IHFAIYFLKYS [ARMC9_Y107_L108F] has an SH2 binding enrichment of 1.11. Sequence EQKKYYNAVKK [SCN5A_Y1495_M1498V] has an SH2 binding enrichment of 0.696. NIWDSYTTNKV [GNB1_Y85_I80N] showed an SH2 binding enrichment of 0.425. PQAVTYATVKH [LILRB4_Y360_K362T] gave an SH2 binding enrichment of 3.11. With KPGVNYFFQVS the SH2 binding enrichment was 0.606. For ISDNAYQFMLT [MYH7_Y162_YF], the SH2 binding enrichment was 0.735. Work on LFVDVYGPSVP [NUBPL_Y109_D105Y_YF] yielded an SH2 binding enrichment of 0.42. In the case of KNEVLYDEENH [ARFGEF1_Y314_G316E], the SH2 binding enrichment is reported as 0.636. Sequence RESFKYLPSSL [CXXC1_Y218_F219L_YF] has an SH2 binding enrichment of 0.353. In the case of HCEDGYPGGSD [CTNND1_Y221_Y217C], the SH2 binding enrichment is reported as 0.64. In the case of CGTPTYLAPEV [CHEK2_Y390], the SH2 binding enrichment is reported as 0.582. Sequence QYNMQYSSSAA [ERBB2IP_Y981_I979M] has an SH2 binding enrichment of 0.603. In the case of GGRIDYIAGLD [APRT_Y60], the SH2 binding enrichment is reported as 0.498. Sequence RDHFGYRQSVT [CD55_Y245_YF] has an SH2 binding enrichment of 0.629. YQLENYCNGGG [INS_Y108] showed an SH2 binding enrichment of 0.76.

These sequences were tested against SHP2-C SH2 in the same assay as above.
In the case of RHPEVYHHLGI [NVL_Y290_V295I], the SH2 binding enrichment is reported as 1.11. IQKKFYRAILE [CHD7_Y1218_YF] was tested, and the SH2 binding enrichment was 0.699. For KNRDVYSSDFF [USP24_Y2134_YF], the SH2 binding enrichment was 0.55. In the case of KQRKEYMHRRQ [IQGAP2_Y710], the SH2 binding enrichment is reported as 0.392. Sequence NTYENYWPFYQ [GATM_Y103_K102N] has an SH2 binding enrichment of 1.81. Work on ISRLKYPVSQQ [BTK_Y375] yielded an SH2 binding enrichment of 1.04. Work on PGNIVYSSLCG [BCOR_Y90] yielded an SH2 binding enrichment of 1.51. For PNRILYRDFRQ [MYH7_Y715_G716R], the SH2 binding enrichment was 0.676. For PQIVNYSPDCI [LDHB_Y128_K127N], the SH2 binding enrichment was 0.492. Work on GNLLIYTEFGN [HGD_Y166_K171N] yielded an SH2 binding enrichment of 0.541. Sequence LIGRRCDDPEV [HSPA9_Y128_Y128C] has an SH2 binding enrichment of 0.557. With DRSSLYLVAGP [KIAA1614_Y1083_N1078D] the SH2 binding enrichment was 0.685. In the case of NTILLYHIMAW [GPR143_Y157_S152N], the SH2 binding enrichment is reported as 0.829. With PHQTIYGALMI [FGF23_Y70_S71G] the SH2 binding enrichment was 0.599. IHFAIYFLKYS [ARMC9_Y107_L108F] showed an SH2 binding enrichment of 1.22. For EQKKYYNAVKK [SCN5A_Y1495_M1498V], the SH2 binding enrichment was 1.01. NIWDSYTTNKV [GNB1_Y85_I80N] gave an SH2 binding enrichment of 0.709. PQAVTYATVKH [LILRB4_Y360_K362T] was tested, and the SH2 binding enrichment was 85.4. KPGVNYFFQVS was tested, and the SH2 binding enrichment was 1.18. Work on ISDNAYQFMLT [MYH7_Y162_YF] yielded an SH2 binding enrichment of 0.841. LFVDVYGPSVP [NUBPL_Y109_D105Y_YF] showed an SH2 binding enrichment of 0.684. For KNEVLYDEENH [ARFGEF1_Y314_G316E], the SH2 binding enrichment was 0.789. Sequence RESFKYLPSSL [CXXC1_Y218_F219L_YF] has an SH2 binding enrichment of 0.455. Work on HCEDGYPGGSD [CTNND1_Y221_Y217C] yielded an SH2 binding enrichment of 0.653. In the case of CGTPTYLAPEV [CHEK2_Y390], the SH2 binding enrichment is reported as 0.785. QYNMQYSSSAA [ERBB2IP_Y981_I979M] was tested, and the SH2 binding enrichment was 1.72. Sequence GGRIDYIAGLD [APRT_Y60] has an SH2 binding enrichment of 0.728. RDHFGYRQSVT [CD55_Y245_YF] gave an SH2 binding enrichment of 0.82. YQLENYCNGGG [INS_Y108] showed an SH2 binding enrichment of 0.697.

What follows are sequences tested against Grb2 SH2 (UniProt P62993) in the same assay as above.
Grb2 SH2, sequence (P62993 whole entry, looked up): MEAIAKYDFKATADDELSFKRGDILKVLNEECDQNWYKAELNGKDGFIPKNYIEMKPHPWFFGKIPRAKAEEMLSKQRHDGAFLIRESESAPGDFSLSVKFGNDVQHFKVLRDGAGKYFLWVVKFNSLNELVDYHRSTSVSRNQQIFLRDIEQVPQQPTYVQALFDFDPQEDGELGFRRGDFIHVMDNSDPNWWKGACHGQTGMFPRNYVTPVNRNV
With RHPEVYHHLGI [NVL_Y290_V295I] the SH2 binding enrichment was 1.09. In the case of IQKKFYRAILE [CHD7_Y1218_YF], the SH2 binding enrichment is reported as 0.769. For KNRDVYSSDFF [USP24_Y2134_YF], the SH2 binding enrichment was 0.916. In the case of KQRKEYMHRRQ [IQGAP2_Y710], the SH2 binding enrichment is reported as 0.78. NTYENYWPFYQ [GATM_Y103_K102N] gave an SH2 binding enrichment of 9.03. For ISRLKYPVSQQ [BTK_Y375], the SH2 binding enrichment was 0.938. Work on PGNIVYSSLCG [BCOR_Y90] yielded an SH2 binding enrichment of 0.875. PNRILYRDFRQ [MYH7_Y715_G716R] showed an SH2 binding enrichment of 0.847. With PQIVNYSPDCI [LDHB_Y128_K127N] the SH2 binding enrichment was 0.891. With GNLLIYTEFGN [HGD_Y166_K171N] the SH2 binding enrichment was 0.736. In the case of LIGRRCDDPEV [HSPA9_Y128_Y128C], the SH2 binding enrichment is reported as 0.997. With DRSSLYLVAGP [KIAA1614_Y1083_N1078D] the SH2 binding enrichment was 0.781. NTILLYHIMAW [GPR143_Y157_S152N] gave an SH2 binding enrichment of 0.801. Work on PHQTIYGALMI [FGF23_Y70_S71G] yielded an SH2 binding enrichment of 0.75. For IHFAIYFLKYS [ARMC9_Y107_L108F], the SH2 binding enrichment was 1.18. Work on EQKKYYNAVKK [SCN5A_Y1495_M1498V] yielded an SH2 binding enrichment of 1.16. In the case of NIWDSYTTNKV [GNB1_Y85_I80N], the SH2 binding enrichment is reported as 0.983. PQAVTYATVKH [LILRB4_Y360_K362T] was tested, and the SH2 binding enrichment was 0.851. KPGVNYFFQVS gave an SH2 binding enrichment of 0.993. In the case of ISDNAYQFMLT [MYH7_Y162_YF], the SH2 binding enrichment is reported as 0.762. LFVDVYGPSVP [NUBPL_Y109_D105Y_YF] was tested, and the SH2 binding enrichment was 0.921. In the case of KNEVLYDEENH [ARFGEF1_Y314_G316E], the SH2 binding enrichment is reported as 0.664. Sequence RESFKYLPSSL [CXXC1_Y218_F219L_YF] has an SH2 binding enrichment of 0.919. Work on HCEDGYPGGSD [CTNND1_Y221_Y217C] yielded an SH2 binding enrichment of 1.06. Work on CGTPTYLAPEV [CHEK2_Y390] yielded an SH2 binding enrichment of 0.878. QYNMQYSSSAA [ERBB2IP_Y981_I979M] was tested, and the SH2 binding enrichment was 1.04. GGRIDYIAGLD [APRT_Y60] was tested, and the SH2 binding enrichment was 0.789. With RDHFGYRQSVT [CD55_Y245_YF] the SH2 binding enrichment was 0.644. Sequence YQLENYCNGGG [INS_Y108] has an SH2 binding enrichment of 0.862.

The sequences below were run against Fes (UniProt P07332) (assay: phosphorylation enrichment, bacterial display (enrichment ratio); higher = better substrate or ligand; peptides without Tyr show the background).
Fes, sequence (P07332 whole entry, looked up): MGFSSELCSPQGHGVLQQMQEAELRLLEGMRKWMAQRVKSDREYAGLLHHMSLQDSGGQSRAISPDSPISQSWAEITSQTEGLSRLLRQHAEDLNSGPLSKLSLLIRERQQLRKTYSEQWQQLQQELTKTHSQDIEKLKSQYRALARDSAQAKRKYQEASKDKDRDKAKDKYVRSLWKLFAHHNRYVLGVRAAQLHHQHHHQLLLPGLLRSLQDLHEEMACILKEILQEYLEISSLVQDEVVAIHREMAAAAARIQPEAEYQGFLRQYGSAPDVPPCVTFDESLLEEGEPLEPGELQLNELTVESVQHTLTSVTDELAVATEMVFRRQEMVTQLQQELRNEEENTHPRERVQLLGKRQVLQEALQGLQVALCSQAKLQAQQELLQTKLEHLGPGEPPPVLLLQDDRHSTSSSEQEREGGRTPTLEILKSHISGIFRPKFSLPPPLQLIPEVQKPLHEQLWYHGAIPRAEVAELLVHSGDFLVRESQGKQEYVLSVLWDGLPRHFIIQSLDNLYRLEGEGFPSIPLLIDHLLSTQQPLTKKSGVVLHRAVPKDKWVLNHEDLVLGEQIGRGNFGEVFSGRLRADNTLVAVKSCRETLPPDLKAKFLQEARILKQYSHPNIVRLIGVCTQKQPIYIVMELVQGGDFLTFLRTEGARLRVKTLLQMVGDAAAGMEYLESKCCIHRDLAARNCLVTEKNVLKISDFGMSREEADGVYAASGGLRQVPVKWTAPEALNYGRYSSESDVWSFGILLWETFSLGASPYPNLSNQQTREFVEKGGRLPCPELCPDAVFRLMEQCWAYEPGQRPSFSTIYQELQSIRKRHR
In the case of RHPEVYHHLGI [NVL_Y290_V295I], the phosphorylation enrichment is reported as 0.835. IQKKFYRAILE [CHD7_Y1218_YF] gave a phosphorylation enrichment of 0.727. For KNRDVYSSDFF [USP24_Y2134_YF], the phosphorylation enrichment was 0.828. In the case of KQRKEYMHRRQ [IQGAP2_Y710], the phosphorylation enrichment is reported as 0.715. With NTYENYWPFYQ [GATM_Y103_K102N] the phosphorylation enrichment was 4.54. ISRLKYPVSQQ [BTK_Y375] showed a phosphorylation enrichment of 0.59. PGNIVYSSLCG [BCOR_Y90] showed a phosphorylation enrichment of 1.62. For PNRILYRDFRQ [MYH7_Y715_G716R], the phosphorylation enrichment was 0.778. Work on PQIVNYSPDCI [LDHB_Y128_K127N] yielded a phosphorylation enrichment of 0.824. For GNLLIYTEFGN [HGD_Y166_K171N], the phosphorylation enrichment was 1.15. In the case of LIGRRCDDPEV [HSPA9_Y128_Y128C], the phosphorylation enrichment is reported as 1.51. DRSSLYLVAGP [KIAA1614_Y1083_N1078D] was tested, and the phosphorylation enrichment was 1.13. For NTILLYHIMAW [GPR143_Y157_S152N], the phosphorylation enrichment was 1.62. PHQTIYGALMI [FGF23_Y70_S71G] showed a phosphorylation enrichment of 1.07. Work on IHFAIYFLKYS [ARMC9_Y107_L108F] yielded a phosphorylation enrichment of 1.41. In the case of EQKKYYNAVKK [SCN5A_Y1495_M1498V], the phosphorylation enrichment is reported as 0.63. In the case of NIWDSYTTNKV [GNB1_Y85_I80N], the phosphorylation enrichment is reported as 0.9. PQAVTYATVKH [LILRB4_Y360_K362T] was tested, and the phosphorylation enrichment was 0.776. KPGVNYFFQVS was tested, and the phosphorylation enrichment was 1.38. For ISDNAYQFMLT [MYH7_Y162_YF], the phosphorylation enrichment was 1.19. LFVDVYGPSVP [NUBPL_Y109_D105Y_YF] showed a phosphorylation enrichment of 1.34. In the case of KNEVLYDEENH [ARFGEF1_Y314_G316E], the phosphorylation enrichment is reported as 1.4. Sequence RESFKYLPSSL [CXXC1_Y218_F219L_YF] has a phosphorylation enrichment of 0.862. Work on HCEDGYPGGSD [CTNND1_Y221_Y217C] yielded a phosphorylation enrichment of 1.81. For CGTPTYLAPEV [CHEK2_Y390], the phosphorylation enrichment was 1.34. Work on QYNMQYSSSAA [ERBB2IP_Y981_I979M] yielded a phosphorylation enrichment of 1.18. Sequence GGRIDYIAGLD [APRT_Y60] has a phosphorylation enrichment of 0.829. For RDHFGYRQSVT [CD55_Y245_YF], the phosphorylation enrichment was 0.702. Sequence YQLENYCNGGG [INS_Y108] has a phosphorylation enrichment of 0.812.
